Measurements as given in article doi:10.1101/2025.11.22.689886 (bioRxiv, 2025).

Target: the molecule itself
Test: SEC

B1: transdermal peptide-recombinant type III collagen fusion protein (other, human)
chain: FEGPASRPGFPGMKGHRGFDGRNGEKGETGAPGLKGENGLPGENGAPGPMGPRGAPGERGRPGLPGAAGARGNDGARGSDGQPGPPGPPGTAGFPGSPGAKGEVGPAGSPGSNGAPGQRGEPGPQGHAGAQGPPGPPGINGSPGGKGEMGPAGIPGAPGLMGARGPPGPAGANGAPGLRGGAGEPGKNGAKGEPGPRGERGEAGIPGVPGAKGEDGKDGSPGEPGANG
stoichiometry N: 3
